Experimental data as given in US20240124607A1 (Merck Sharp & Dohme, published 2024).

T1: Human CEACAM5 (K398) (human, UniProt P06731 35-685, limits assumed)
T1 construct: also called K398 allele
T1 sequence: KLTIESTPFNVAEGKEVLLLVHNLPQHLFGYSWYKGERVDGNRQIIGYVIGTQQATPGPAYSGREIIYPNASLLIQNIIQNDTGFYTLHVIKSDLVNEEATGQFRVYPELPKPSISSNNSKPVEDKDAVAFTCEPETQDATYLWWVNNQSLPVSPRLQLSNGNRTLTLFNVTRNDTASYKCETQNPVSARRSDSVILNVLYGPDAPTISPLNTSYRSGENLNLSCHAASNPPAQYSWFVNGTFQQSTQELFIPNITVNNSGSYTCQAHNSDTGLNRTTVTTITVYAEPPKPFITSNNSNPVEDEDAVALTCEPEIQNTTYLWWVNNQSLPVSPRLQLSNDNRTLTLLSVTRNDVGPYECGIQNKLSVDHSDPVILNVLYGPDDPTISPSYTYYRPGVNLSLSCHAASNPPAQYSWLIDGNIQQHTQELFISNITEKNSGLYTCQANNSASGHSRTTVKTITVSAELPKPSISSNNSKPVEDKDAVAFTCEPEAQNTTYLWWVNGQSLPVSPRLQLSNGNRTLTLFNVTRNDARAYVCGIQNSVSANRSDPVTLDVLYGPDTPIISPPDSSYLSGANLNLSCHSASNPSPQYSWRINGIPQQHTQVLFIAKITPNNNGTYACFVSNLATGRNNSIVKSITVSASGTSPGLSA

T2: Human CEACAM5 (E398) (human, UniProt P06731 35-685, limits assumed)
T2 construct: also called hCEACAM5
T2 sequence: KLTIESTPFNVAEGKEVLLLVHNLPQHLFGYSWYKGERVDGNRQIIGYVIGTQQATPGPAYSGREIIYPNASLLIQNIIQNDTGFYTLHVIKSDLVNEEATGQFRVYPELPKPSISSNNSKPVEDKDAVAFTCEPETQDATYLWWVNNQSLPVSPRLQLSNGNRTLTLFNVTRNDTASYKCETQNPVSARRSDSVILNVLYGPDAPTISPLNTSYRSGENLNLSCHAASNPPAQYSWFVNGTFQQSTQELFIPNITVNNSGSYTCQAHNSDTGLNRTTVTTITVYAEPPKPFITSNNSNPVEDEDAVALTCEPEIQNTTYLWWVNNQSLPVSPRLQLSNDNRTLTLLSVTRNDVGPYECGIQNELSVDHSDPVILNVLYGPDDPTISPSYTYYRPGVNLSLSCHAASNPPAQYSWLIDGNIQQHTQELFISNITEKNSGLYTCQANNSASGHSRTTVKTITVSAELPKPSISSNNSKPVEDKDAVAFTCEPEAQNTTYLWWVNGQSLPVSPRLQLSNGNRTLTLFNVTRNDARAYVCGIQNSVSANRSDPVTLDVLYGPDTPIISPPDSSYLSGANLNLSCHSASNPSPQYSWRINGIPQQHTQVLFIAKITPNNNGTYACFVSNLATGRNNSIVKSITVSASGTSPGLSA

T3: Human CEACAM5 I113T (human, UniProt P06731 35-685, limits assumed)
T3 sequence: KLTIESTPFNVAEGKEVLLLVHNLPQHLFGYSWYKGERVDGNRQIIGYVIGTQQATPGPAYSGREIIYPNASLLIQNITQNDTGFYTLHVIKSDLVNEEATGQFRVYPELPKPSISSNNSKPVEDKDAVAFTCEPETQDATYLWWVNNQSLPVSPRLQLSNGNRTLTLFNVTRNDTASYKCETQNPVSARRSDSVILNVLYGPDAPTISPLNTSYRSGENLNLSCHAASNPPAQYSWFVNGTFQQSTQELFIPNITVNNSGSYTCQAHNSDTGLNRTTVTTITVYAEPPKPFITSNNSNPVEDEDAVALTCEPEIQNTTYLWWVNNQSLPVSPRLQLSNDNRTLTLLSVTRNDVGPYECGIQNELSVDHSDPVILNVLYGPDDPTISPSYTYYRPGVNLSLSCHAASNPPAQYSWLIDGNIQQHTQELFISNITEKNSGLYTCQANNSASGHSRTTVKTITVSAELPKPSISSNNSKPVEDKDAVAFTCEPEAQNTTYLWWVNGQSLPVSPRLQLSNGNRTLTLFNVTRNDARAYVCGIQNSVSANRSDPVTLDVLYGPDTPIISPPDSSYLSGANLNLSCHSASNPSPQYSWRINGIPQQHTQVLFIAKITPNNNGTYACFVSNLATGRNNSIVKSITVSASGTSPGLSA

T4: Human CEACAM5 V83A (human, UniProt P06731 35-685, limits assumed)
T4 sequence: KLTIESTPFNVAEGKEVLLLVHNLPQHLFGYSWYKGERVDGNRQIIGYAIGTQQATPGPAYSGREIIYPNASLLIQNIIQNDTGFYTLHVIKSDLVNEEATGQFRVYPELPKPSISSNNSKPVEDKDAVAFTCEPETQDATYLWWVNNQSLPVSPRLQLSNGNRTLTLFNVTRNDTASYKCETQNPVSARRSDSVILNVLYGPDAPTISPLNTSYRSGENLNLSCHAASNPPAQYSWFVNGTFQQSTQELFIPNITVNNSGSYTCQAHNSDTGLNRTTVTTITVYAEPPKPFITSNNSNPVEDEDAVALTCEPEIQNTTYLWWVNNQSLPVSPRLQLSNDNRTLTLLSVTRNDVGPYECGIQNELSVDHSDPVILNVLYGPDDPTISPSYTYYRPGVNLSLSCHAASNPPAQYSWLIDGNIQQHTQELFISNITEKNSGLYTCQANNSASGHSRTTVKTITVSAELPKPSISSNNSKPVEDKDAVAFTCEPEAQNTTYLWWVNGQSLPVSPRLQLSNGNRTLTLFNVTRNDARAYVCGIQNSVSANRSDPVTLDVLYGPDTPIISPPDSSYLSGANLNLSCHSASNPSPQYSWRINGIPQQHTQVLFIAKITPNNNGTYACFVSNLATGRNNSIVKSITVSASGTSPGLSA


Legend:
Assay in all cases: SPR, 37C, pH 7.4; reference E398
Human CEACAM5 (K398) = biological target: T1, Human CEACAM5 (K398)
Human CEACAM5 (E398) = biological target: T2, Human CEACAM5 (E398)
Human CEACAM5 I113T = biological target: T3, Human CEACAM5 I113T
Human CEACAM5 V83A = biological target: T4, Human CEACAM5 V83A

KD/KD(Ref) (Human CEACAM5 (K398)) [fold]	KD/KD(Ref) (Human CEACAM5 (E398)) [fold]	KD/KD(Ref) (Human CEACAM5 I113T) [fold]	KD/KD(Ref) (Human CEACAM5 V83A) [fold]	Binder
0.9	1	1.2	9.3	AB0466 F3' CEACAM5 TriNKET (bispecific antibody, human IgG1, kappa) not shown heavy: EVQLVESGGGLVKPGGSLRLSCAASGFTFSSYSMNWVRQAPGKGLEWVSSISSSSSYIYYADSVKGRFTISRDNAKNSLYLQMNSLRAEDTAVYYCARGAPIGAAAGWFDPWGQGTLVTVSSASTKGPSVFPLAPSSKSTSGGTAALGCLVKDYFPEPVTVSWNSGALTSGVHTFPAVLQSSGLYSLSSVVTVPSSSLGTQTYICNVNHKPSNTKVDKKVEPKSCDKTHTCPPCPAPELLGGPSVFLFPPKPKDTLMISRTPEVTCVVVDVSHEDPEVKFNWYVDGVEVHNAKTKPREEQYNSTYRVVSVLTVLHQDWLNGKEYKCKVSNKALPAPIEKTISKAKGQPREPQVCTLPPSRDELTENQVSLTCLVKGFYPSDIAVEWESNGQPENNYKTTPPVLDSDGSFFLYSWLTVDKSRWQQGNVFSCSVMHEALHNHYTQKSLSLSPG light: DIQMTQSPSSVSASVGDRVTITCRASQGISSWLAWYQQKPGKAPKLLIYAASSLQSGVPSRFSGSGSGTDFTLTISSLQPEDFATYYCQQGVSFPRTFGGGTKVEIKRTVAAPSVFIFPPSDEQLKSGTASVVCLLNNFYPREAKVQWKVDNALQSGNSQESVTEQDSKDSTYSLSSTLTLSKADYEKHKVYACEVTHQGLSSPVTKSFNRGEC
0.9	1	1.1	4.9	AB0411 F3' CEACAM5 TriNKET (bispecific antibody, human IgG1, kappa) DIQLTQSPATLSVSPGERATLSCRASQSVSSSYLAWYQQKPGQAPRLLIYGASSRATGIPDRFSGSGSGTDFTLTISRLEPEDFAVYYCQQYNNWPLTFGCGTKVEIKGGGGSGGGGSGGGGSGGGGSQVQLVQSGGGLVQPGGSLRLSCAASGFTFTSYAMSWVRQAPGKCLEWVSAISGTGDSTFYADSVKGRFTFSRDNSKNTLYLQMNSLRAEDTAVYYCAKDLGWLQYGLFDYWGQGTLVTVSSGSDKTHTCPPCPAPELLGGPSVFLFPPKPKDTLMISRTPEVTCVVVDVSHEDPEVKFNWYVDGVEVHNAKTKPREEQYNSTYRVVSVLTVLHQDWLNGKEYKCKVSNKALPAPIEKTISKAKGQPREPRVYTLPPCRDELTKNQVSLTCLVKGFYPSDIAVEWESNGQPENNYKTTPPVLVSDGSFTLYSKLTVDKSRWQQGNVFSCSVMHEALHNHYTQKSLSLSPG heavy: EVQLVESGGGLVKPGGSLRLSCAASGFTFSSYSMNWVRQAPGKGLEWVSSISSSSSYIYYADSVKGRFTISRDNAKNSLYLQMNSLRAEDTAVYYCARGAPIGAAAGWFDPWGQGTLVTVSSASTKGPSVFPLAPSSKSTSGGTAALGCLVKDYFPEPVTVSWNSGALTSGVHTFPAVLQSSGLYSLSSVVTVPSSSLGTQTYICNVNHKPSNTKVDKKVEPKSCDKTHTCPPCPAPELLGGPSVFLFPPKPKDTLMISRTPEVTCVVVDVSHEDPEVKFNWYVDGVEVHNAKTKPREEQYNSTYRVVSVLTVLHQDWLNGKEYKCKVSNKALPAPIEKTISKAKGQPREPQVCTLPPSRDELTENQVSLTCLVKGFYPSDIAVEWESNGQPENNYKTTPPVLDSDGSFFLYSWLTVDKSRWQQGNVFSCSVMHEALHNHYTQKSLSLSPG light: DIQMTQSPSSVSASVGDRVTITCRASQGISSWLAWYQQKPGKAPKLLIYAASSLQSGVPSRFSGSGSGTDFTLTISSLQPEDFATYYCQQGVSFPRTFGGGTKVEIKRTVAAPSVFIFPPSDEQLKSGTASVVCLLNNFYPREAKVQWKVDNALQSGNSQESVTEQDSKDSTYSLSSTLTLSKADYEKHKVYACEVTHQGLSSPVTKSFNRGEC
1.1	1	1.7	2	AB0621 F3' CEACAM5 TriNKET (bispecific antibody, human IgG1, kappa) DIVMTQSPDSLAVSLGERATINCKSSHSLLYGNFQNNYLAWYQQKPGQPPKLLIYWASTRESGVPDRFSGSGSGTDFTLTISSLQAEDVAVYYCQQYYSYPYTFGCGTKLEIKGGGGSGGGGSGGGGSGGGGSQVQLVQSGAEVKKPGASVKVSCKASGYTFTAYTIHWVRQAPGQCLEWMGYINPSSGYTEYNQKFKDRTTLTADTSISTAYMELSRLRSDDTAVYYCTREGGLLWFDYWGQGTLVTVSSGSDKTHTCPPCPAPELLGGPSVFLFPPKPKDTLMISRTPEVTCVVVDVSHEDPEVKFNWYVDGVEVHNAKTKPREEQYNSTYRVVSVLTVLHQDWLNGKEYKCKVSNKALPAPIEKTISKAKGQPREPRVYTLPPCRDELTKNQVSLTCLVKGFYPSDIAVEWESNGQPENNYKTTPPVLVSDGSFTLYSKLTVDKSRWQQGNVFSCSVMHEALHNHYTQKSLSLSPG heavy: EVQLVESGGGLVKPGGSLRLSCAASGFTFSSYSMNWVRQAPGKGLEWVSSISSSSSYIYYADSVKGRFTISRDNAKNSLYLQMNSLRAEDTAVYYCARGAPIGAAAGWFDPWGQGTLVTVSSASTKGPSVFPLAPSSKSTSGGTAALGCLVKDYFPEPVTVSWNSGALTSGVHTFPAVLQSSGLYSLSSVVTVPSSSLGTQTYICNVNHKPSNTKVDKKVEPKSCDKTHTCPPCPAPELLGGPSVFLFPPKPKDTLMISRTPEVTCVVVDVSHEDPEVKFNWYVDGVEVHNAKTKPREEQYNSTYRVVSVLTVLHQDWLNGKEYKCKVSNKALPAPIEKTISKAKGQPREPQVCTLPPSRDELTENQVSLTCLVKGFYPSDIAVEWESNGQPENNYKTTPPVLDSDGSFFLYSWLTVDKSRWQQGNVFSCSVMHEALHNHYTQKSLSLSPG light: DIQMTQSPSSVSASVGDRVTITCRASQGISSWLAWYQQKPGKAPKLLIYAASSLQSGVPSRFSGSGSGTDFTLTISSLQPEDFATYYCQQGVSFPRTFGGGTKVEIKRTVAAPSVFIFPPSDEQLKSGTASVVCLLNNFYPREAKVQWKVDNALQSGNSQESVTEQDSKDSTYSLSSTLTLSKADYEKHKVYACEVTHQGLSSPVTKSFNRGEC
